Data reported in patent US10487337B2, “Methods for monocot plant improvement” (Agresearch Limited, priority 2014, dated 2019).

Target: T1, NINJA (Arabidopsis thaliana, UniProt Q9SV55)
T1 construct: expressed in transfected cells; host or cells: yeast strain MaV203
T1 sequence (Q9SV55 with tags, fused parts or gaps): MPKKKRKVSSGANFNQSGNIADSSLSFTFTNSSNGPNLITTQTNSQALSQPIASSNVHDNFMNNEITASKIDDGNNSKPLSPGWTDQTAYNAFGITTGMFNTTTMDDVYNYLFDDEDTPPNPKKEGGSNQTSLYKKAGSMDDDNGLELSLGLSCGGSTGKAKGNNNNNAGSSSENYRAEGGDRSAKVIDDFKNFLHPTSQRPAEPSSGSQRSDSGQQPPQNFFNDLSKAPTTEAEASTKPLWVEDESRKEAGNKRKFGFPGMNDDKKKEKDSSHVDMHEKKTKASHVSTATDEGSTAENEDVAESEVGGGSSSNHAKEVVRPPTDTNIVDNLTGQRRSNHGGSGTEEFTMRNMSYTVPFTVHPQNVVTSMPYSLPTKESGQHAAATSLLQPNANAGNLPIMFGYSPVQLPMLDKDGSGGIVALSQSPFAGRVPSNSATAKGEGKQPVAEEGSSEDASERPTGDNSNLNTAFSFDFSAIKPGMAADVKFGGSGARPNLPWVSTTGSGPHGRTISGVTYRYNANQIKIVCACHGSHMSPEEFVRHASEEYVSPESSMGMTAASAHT
Assay: Yeast two hybrid (Y2H) interaction with NINJA
Assay type: binding
Settings: Y2H screening, PPD1 as bait
Text: The constructs for Y2H and BiFC assays were generated as follows. Arabidopsis DNA sequences encoding the open reading frames for; At4g14713 (PPD1) and truncation and deletion derivatives of PPD1: PPD1; PPD1Δppd (N-terminal truncation of sequences encoding aa 1-61), PPD1Δtify, (internal deletion of sequences encoding aa 154-186), PPD1Δjas*(C-terminal truncation of sequences encoding aa 229-313) (FIG. 5), At4g28910 (NINJA), At1g15750 (TPL), At1g75080 (BZR1), a synthetic PUAS-35S promoter, and sequences encoding GAL4DBD and c-myc fusion proteins were synthesised and sequence verified by GeneArt. Most sequences were supplied as clones in pENTR221 ready for Gateway cloning into yeast and plant expression vectors. The exception, a promoter sequence for in planta transcription activation assays, incorporating 5′ Xho1 and 3′ Nco1 restriction enzyme sites, was supplied cloned in pMA-RQ. Plasmids for the transient LUC reporter assay: A synthetic promoter with 5×UAS GAL4 DNA binding sites upstream of a −105 bp CaMV35S promoter was cloned into the XhoI-NcoI sites within a dual luciferase construct pNWA62, which contains an intron-containing Firefly Luciferase gene (LUC) and 35Spro::Renilla Luciferase (REN) as an internal standard, to construct pAML7. […]

B1: PPD1: PEAPOD 1 protein of Arabidopsis thaliana, SEQ ID NO: 1 (protein, listed as Arabidopsis thaliana)
chain: MDVGVSPAKSILAKPLKLLTEEDISQLTREDCRKFLKDKGMRRPSWNKSQAIQQVLSLKALYEPGDDSGAGIFRKILVSQPVNPPRVTTTLIEPSNELEACGRVSYPEDNGACHRMDSPRSAEFSGGSGHFVSEKDGHKTTISPRSPAETSELVGQMTIFYSGKVNVYDGIPPEKARSIMHFAANPIDLPENGIFASSRMISKLISKEKMMELPQKGLEKANSSRDSGMEGQANRKVSLQRYREKRKDRKFSKAKKCPGVASSSLEMFLNCQPRMKAAYSQNLGCTGSPLHSQSPESQTKSPNLSVDLNSEGI
  interaction with NINJA: direct interactor
